# Reference: paper PMC5681642
# Tests used:
# [1] = molecular target: Recombinant BTA121 (Borrelia turicatae), dodeca-His tag cleaved (Borrelia turicatae); assay: SEC; Phenomenex Yarra 3 µ SEC-2000 HPLC column, 1.0 mg/mL, 50 µg loaded, room temperature, 0.5 mL/min; molecular weight estimated with Bio-rad gel filtration standard
# BTA121 = molecular target: T1, BTA121 (Borrelia turicatae, UniProt A0A0R9P931); assay: radioligand binding, Q-sepharose separation, scintillation counting
# T1 construct: signal peptide and further N-terminal residues removed, putative PARP domain kept; N-terminal dodeca-His tag cut with TEV protease; E. coli BL21-CodonPlus(DE3)-RIPL; predominantly monomer, some dimer
# Description: radioligand binding, Q-sepharose separation, scintillation counting on BTA121 | BTA121 binds palmitate with micromolar Kd
Compound,stoichiometry N [1],Kd (BTA121)
"Recombinant BTA121 (Borrelia turicatae), dodeca-His tag cleaved (from UniProt A0A0R9P931 1-445) (natural protein)",2,
CCCCCCCCCCCCCCCC(=O)O [palmitate],,229 µM
